Common to all, as to experiment: enzyme inhibition kinetics
Assay [1] deals with T1, ADAMTS4-1 (full-length human ADAMTS-4, C-terminal FLAG-tag) (human, UniProt O75173 213-837).
T1 sequence (looked up): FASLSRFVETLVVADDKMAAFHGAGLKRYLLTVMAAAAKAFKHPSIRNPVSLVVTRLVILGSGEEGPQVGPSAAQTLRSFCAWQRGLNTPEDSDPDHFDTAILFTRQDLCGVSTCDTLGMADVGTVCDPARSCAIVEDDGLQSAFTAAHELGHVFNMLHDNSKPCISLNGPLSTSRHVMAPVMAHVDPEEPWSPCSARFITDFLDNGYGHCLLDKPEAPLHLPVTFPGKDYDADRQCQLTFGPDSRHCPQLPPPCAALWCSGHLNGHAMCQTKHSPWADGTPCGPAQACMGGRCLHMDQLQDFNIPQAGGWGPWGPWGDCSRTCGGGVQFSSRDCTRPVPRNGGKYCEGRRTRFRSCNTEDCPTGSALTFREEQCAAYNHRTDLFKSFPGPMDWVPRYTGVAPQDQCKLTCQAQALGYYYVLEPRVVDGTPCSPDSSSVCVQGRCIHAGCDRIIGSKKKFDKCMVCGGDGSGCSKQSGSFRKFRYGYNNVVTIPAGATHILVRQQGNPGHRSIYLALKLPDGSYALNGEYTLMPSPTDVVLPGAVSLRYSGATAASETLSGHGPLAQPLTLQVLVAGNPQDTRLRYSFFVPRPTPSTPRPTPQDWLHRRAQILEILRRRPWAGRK

The target of assay [2] is T2, ADAMTS4-2 (human ADAMTS-4 deletion mutant, C-terminal FLAG-tag) (human, UniProt O75173 213-685).
T2 sequence (looked up): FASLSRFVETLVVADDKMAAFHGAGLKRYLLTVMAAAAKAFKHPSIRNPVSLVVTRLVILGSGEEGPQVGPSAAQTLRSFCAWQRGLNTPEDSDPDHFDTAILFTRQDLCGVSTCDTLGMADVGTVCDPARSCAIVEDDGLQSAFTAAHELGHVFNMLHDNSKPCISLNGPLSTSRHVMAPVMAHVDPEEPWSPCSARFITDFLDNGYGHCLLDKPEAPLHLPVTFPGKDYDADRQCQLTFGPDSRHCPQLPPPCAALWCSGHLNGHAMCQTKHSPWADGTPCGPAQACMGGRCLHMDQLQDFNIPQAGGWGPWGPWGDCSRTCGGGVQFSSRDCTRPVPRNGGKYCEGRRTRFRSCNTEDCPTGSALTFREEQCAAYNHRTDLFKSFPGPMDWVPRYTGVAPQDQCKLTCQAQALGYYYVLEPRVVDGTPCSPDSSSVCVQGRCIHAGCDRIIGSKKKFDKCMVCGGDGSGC

In assay [3] the target is T3, ADAMTS4-3 (human ADAMTS-4 deletion mutant, C-terminal FLAG-tag) (human, UniProt O75173 213-575).
T3 sequence (looked up): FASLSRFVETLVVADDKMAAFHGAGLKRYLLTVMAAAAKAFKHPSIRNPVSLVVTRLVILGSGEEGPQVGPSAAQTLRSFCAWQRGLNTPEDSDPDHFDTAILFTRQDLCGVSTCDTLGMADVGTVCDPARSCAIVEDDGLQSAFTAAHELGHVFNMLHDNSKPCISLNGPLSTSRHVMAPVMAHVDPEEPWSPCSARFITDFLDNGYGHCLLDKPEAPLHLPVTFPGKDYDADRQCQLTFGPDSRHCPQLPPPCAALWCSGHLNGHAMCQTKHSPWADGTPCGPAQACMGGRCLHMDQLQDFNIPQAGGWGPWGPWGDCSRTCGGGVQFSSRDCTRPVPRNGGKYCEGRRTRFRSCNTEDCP

Assay [4] has as its target T4, ADAMTS4-4 (human ADAMTS-4 deletion mutant, C-terminal FLAG-tag) (human, UniProt O75173 213-519).
T4 sequence (looked up): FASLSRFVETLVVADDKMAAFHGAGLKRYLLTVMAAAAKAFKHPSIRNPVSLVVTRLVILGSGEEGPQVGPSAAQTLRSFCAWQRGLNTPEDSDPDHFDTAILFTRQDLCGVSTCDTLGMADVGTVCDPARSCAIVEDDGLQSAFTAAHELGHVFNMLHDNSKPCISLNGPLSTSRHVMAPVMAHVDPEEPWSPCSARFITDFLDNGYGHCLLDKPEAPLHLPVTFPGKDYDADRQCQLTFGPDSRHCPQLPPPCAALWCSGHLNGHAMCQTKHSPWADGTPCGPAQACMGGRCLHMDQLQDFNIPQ

B1: FLAG-tagged glycosylated human TIMP-3 (full-length tissue inhibitor of metalloproteinases 3), expressed in HEK293 (natural protein, UniProt P35625 24-211, looked up)
chain: CTCSPSHPQDAFCNSDIVIRAKVVGKKLVKEGPFGTLVYTIKQMKMYRGFTKMPHVQYIHTEASESLCGLKLEVNKYQYLLTGRVYDGKMYTGLCNFVERWDQLTLSQRKGLNYRYHLGCNCKIKSCYYLPCFVTSKNECLWTDMLSNFGYPGYQSKHYACIRQKGGYCSWYRGWAPPDKSIINATDP
modifications: glycosylated (only the 27 kDa glycosylated form remained after purification; single N-glycosylation site in the C-terminal domain)
Consider B1, for which the inhibitory constant (Ki) in assay [1] worked out at 0.22 nM; in assay [2], 0.22 nM; in assay [3], 0.4 nM; in assay [4], 0.51 nM.
